Experimental data from the supplement of paper PMC7877785.
± gives the uncertainty stated by the source.

Experiment: self-splicing fitness, log relative to wild type (ln ratio); higher = more splicing; Tetrahymena group I intron in knt gene, E. coli kanamycin selection, DiMSum; sequences stand for … in CUCUCU…GGAGGGAAAAGUUAUCAGGCAUGCACCUGGUAGCUAGUCUUUAAACCAAUAGAUUGCAUCGGUUUAAAAGGCAAGACCGUCAAAUUGCGGGAAAGGGGUCAACAGCCGUUCAGUACCAAGUCUCAGGGGAAACUUUGAGAUGGCCUUGCAAAGGGUAUGGUAAUAAGCUGACGGACAUGGUCCUAACCACGCAGCCAAGUCCUAAGUCAACAGAUCUUCUGUUGAUAUGGAUGCAGUUCACAGACUAAAUGUCGGUCGGGGAAGAUGUAUUCUUCUCAUAAGAUAUAGUCGGACCUCUCCUUAAUGGGAGCUAGCGGAUGAAGUGAUGCAACACUGGAGCCGCUGGGAACUAAUUUGUAUGCGAAAGUAUAUUGAUUAGUUUUGGAGUACUCGUGGUCG
Procedure, shortened: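 The eight P1ex-region nucleotides of an intron in the knt kanamycin-resistance gene on pET-22b(+) were all randomised and the library put into E. coli BL21(DE3). Six replicate transformations were grown overnight at 37°C or 30°C on LB agar with or without 25 μg/mL kanamycin, together with 100 μg/mL carbenicillin, 50 μM IPTG and 0.2% rhamnose. Colonies were pooled and amplicon-sequenced on an Illumina HiSeq 2500. Fitness from DiMSum is the error-weighted combination of wild-type-normalised replicate fold changes, kanamycin over none.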

Sequence | self-splicing fitness (ln) (30 °C) | self-splicing fitness (ln) (37 °C)
AAUAAGCAAUAUUACGGGCA | -0.69 ± 0.1 | -0.292 ± 0.11
CCAUAGCAAUAUUACGGGAA | -3.49 ± 0.19 | -2.84 ± 0.18
UAAGAGCAAUAUUACGACGA | -1.72 ± 0.19 | -1.61 ± 0.21
GGACAGCAAUAUUACGAUAU | -1.67 ± 0.08 | -0.201 ± 0.086
GAAUAGCAAUAUUACGCUCG | 0.178 ± 0.15 | -0.999 ± 0.16
GAACAGCAAUAUUACGAAGC | -1.37 ± 0.1 | -1.14 ± 0.13
GUACAGCAAUAUUACGAAGG | – | -0.639 ± 0.25
CUCAAGCAAUAUUACGCAGA | -3.06 ± 0.5 | -2.41 ± 0.21
AUUCAGCAAUAUUACGAACU | 0.334 ± 0.13 | 0.543 ± 0.14
CGACAGCAAUAUUACGCAAG | -1.28 ± 0.081 | -0.83 ± 0.097
UGCAAGCAAUAUUACGCUUA | -1.2 ± 0.092 | -0.639 ± 0.092
CGGCAGCAAUAUUACGGUGU | -4.04 ± 0.2 | -2.55 ± 0.17
AUGGAGCAAUAUUACGAUAU | -1.77 ± 0.12 | -1.17 ± 0.15
GGCUAGCAAUAUUACGCAUC | 0.346 ± 0.16 | 0.785 ± 0.17
AAUAAGCAAUAUUACGGCAC | -1.44 ± 0.11 | -0.634 ± 0.14
UUCUAGCAAUAUUACGAAGU | – | -0.603 ± 0.25
UCAUAGCAAUAUUACGCUAA | -3.23 ± 0.37 | -2.07 ± 0.29
AGUCAGCAAUAUUACGAAUC | -0.727 ± 0.13 | -0.18 ± 0.19
ACCCAGCAAUAUUACGCAAC | -2.62 ± 0.12 | -0.73 ± 0.11
CCCCAGCAAUAUUACGCAAA | -3.28 ± 0.14 | -2.44 ± 0.18
AGGGAGCAAUAUUACGCGGG | -1.93 ± 0.2 | –
GUACAGCAAUAUUACGCUCC | -1.81 ± 0.29 | -0.404 ± 0.23
UGCUAGCAAUAUUACGGGGG | -0.837 ± 0.13 | -2.32 ± 0.32
UACAAGCAAUAUUACGCGGA | -1.85 ± 0.092 | -1.21 ± 0.098
UUACAGCAAUAUUACGUACA | -0.278 ± 0.087 | 0.137 ± 0.1
GCUAAGCAAUAUUACGUGGA | -2 ± 0.093 | -1.7 ± 0.092

Sequence | self-splicing fitness (ln) (30 °C) | self-splicing fitness (ln) (37 °C)
AUCCAGCAAUAUUACGGCUC | -1.39 ± 0.078 | -0.482 ± 0.099
UAAUAGCAAUAUUACGAGAA | – | -1.22 ± 0.26
GGCGAGCAAUAUUACGGCAG | – | -1.94 ± 0.36
GGAUAGCAAUAUUACGAUUA | -0.674 ± 0.17 | 0.409 ± 0.15
UAGCAGCAAUAUUACGAAGG | -2.85 ± 0.12 | -2.21 ± 0.19
GGCUAGCAAUAUUACGUGAA | -0.24 ± 0.086 | -0.383 ± 0.086
AACUAGCAAUAUUACGCUCC | -1.39 ± 0.15 | -0.732 ± 0.19
UGAGAGCAAUAUUACGCGAG | -3.56 ± 0.37 | -2.34 ± 0.22
AGUCAGCAAUAUUACGAUAA | -0.337 ± 0.087 | -0.697 ± 0.1
GUCUAGCAAUAUUACGCGGC | – | -2.87 ± 0.4
UCGAAGCAAUAUUACGGGAA | -2.02 ± 0.12 | -0.804 ± 0.11
AUGAAGCAAUAUUACGCCGU | -0.474 ± 0.12 | -0.0165 ± 0.14
CCAUAGCAAUAUUACGGCGU | -3.98 ± 0.3 | -1.97 ± 0.23
AUCAAGCAAUAUUACGGUGC | -3.24 ± 0.17 | -3.12 ± 0.24
CGAAAGCAAUAUUACGCUUG | -2.51 ± 0.087 | -2.15 ± 0.091
CUGAAGCAAUAUUACGCGCC | -3.07 ± 0.31 | –
AUCUAGCAAUAUUACGGCCU | -0.214 ± 0.1 | -0.589 ± 0.14
UGACAGCAAUAUUACGAUUG | -0.875 ± 0.061 | -0.525 ± 0.067
ACGUAGCAAUAUUACGGGCU | -1.15 ± 0.063 | -1.18 ± 0.1
GCCUAGCAAUAUUACGGUAU | -0.978 ± 0.07 | -0.02 ± 0.08
UGGAAGCAAUAUUACGACUA | -0.154 ± 0.074 | 0.331 ± 0.11
UUGGAGCAAUAUUACGUACC | -3.52 ± 0.43 | -2.01 ± 0.44
UGUUAGCAAUAUUACGCUAA | -2.05 ± 0.4 | –
UUGCAGCAAUAUUACGCCAG | -0.879 ± 0.13 | 0.0127 ± 0.2
AGUCAGCAAUAUUACGCAGC | -2.28 ± 0.15 | -1.22 ± 0.16
CCCGAGCAAUAUUACGUGAU | -4.13 ± 0.28 | -2.22 ± 0.19

Sequence | self-splicing fitness (ln) (30 °C) | self-splicing fitness (ln) (37 °C)
AACCAGCAAUAUUACGAAGG | -3.19 ± 0.23 | -1.8 ± 0.22
UCGAAGCAAUAUUACGACGC | 0.247 ± 0.19 | -0.514 ± 0.2
AGUAAGCAAUAUUACGCUCA | -0.405 ± 0.12 | -0.595 ± 0.11
GGGGAGCAAUAUUACGGAGU | -1.01 ± 0.41 | –
GCCUAGCAAUAUUACGGCAU | -3.27 ± 0.27 | -0.94 ± 0.13
AUCCAGCAAUAUUACGGCAU | -0.192 ± 0.071 | 0.204 ± 0.082
UCCAAGCAAUAUUACGGGGG | -3.91 ± 0.2 | -3.41 ± 0.24
GAUCAGCAAUAUUACGGCUC | 0.00813 ± 0.1 | 0.687 ± 0.12
ACCGAGCAAUAUUACGAAUC | -4.8 ± 0.42 | -2.61 ± 0.32
UUCCAGCAAUAUUACGAGUA | -1.12 ± 0.07 | 0.0282 ± 0.078
UAACAGCAAUAUUACGUAGC | -3.86 ± 0.17 | -2.02 ± 0.11
GGGUAGCAAUAUUACGCCCG | -1.88 ± 0.25 | -1.32 ± 0.17
UCAAAGCAAUAUUACGCAAU | -5.01 ± 0.34 | -2.79 ± 0.21
CAAUAGCAAUAUUACGACCG | -0.173 ± 0.12 | 0.201 ± 0.18
GUAAAGCAAUAUUACGGAGU | -3.08 ± 0.26 | -2.81 ± 0.29
AUUCAGCAAUAUUACGGCCU | -1.03 ± 0.12 | 0.0851 ± 0.22
ACAGAGCAAUAUUACGGGGC | -3.53 ± 0.17 | -2.73 ± 0.22
GACCAGCAAUAUUACGCGGC | -3 ± 0.25 | -2.3 ± 0.29
AUCAAGCAAUAUUACGAGGG | -2.85 ± 0.19 | -1.39 ± 0.19
GUUAAGCAAUAUUACGCCCU | -0.813 ± 0.14 | -0.242 ± 0.11
CGCAAGCAAUAUUACGCCAU | -3.9 ± 0.26 | -2.61 ± 0.19
GCACAGCAAUAUUACGCUCU | -0.938 ± 0.091 | -0.131 ± 0.1
ACUUAGCAAUAUUACGCGCA | -0.717 ± 0.093 | -0.258 ± 0.13
CUAGAGCAAUAUUACGGAAC | -1.38 ± 0.17 | –
CCUUAGCAAUAUUACGUCUG | -2.99 ± 0.1 | -1.48 ± 0.096
AGACAGCAAUAUUACGACAU | -0.107 ± 0.011 | -0.0048 ± 0.032
